# Reference: IntAct's records for PubMed 15252009
# B1: Formin-binding protein 1 (Homo sapiens), Q96RU3 (parent)
# chain: MSWGTELWDQFDNLEKHTQWGIDILEKYIKFVKERTEIELSYAKQLRNLSKKYQPKKNSKEEEEYKYTSCKAFISNLNEMNDYAGQHEVISENMASQIIVDLARYVQELKQERKSNFHDGRKAQQHIETCWKQLESSKRRFERDCKEADRAQQYFEKMDADINVTKADVEKARQQAQIRHQMAEDSKADYSSILQKFNHEQHEYYHTHIPNIFQKIQEMEERRIVRMGESMKTYAEVDRQVIPIIGKCLDGIVKAAESIDQKNDSQLVIEAYKSGFEPPGDIEFEDYTQPMKRTVSDNSLSNSRGEGKPDLKFGGKSKGKLWPFIKKNKLMSLLTSPHQPPPPPPASASPSAVPNGPQSPKQQKEPLSHRFNEFMTSKPKIHCFRSLKRGLSLKLGATPEDFSNLPPEQRRKKLQQKVDELNKEIQKEMDQRDAITKMKDVYLKNPQMGDPASLDHKLAEVSQNIEKLRVETQKFEAWLAEVEGRLPARSEQARRQSGLYDSQNPPTVNNCAQDRESPDGSYTEEQSQESEMKVLATDFDDEFDDEEPLPAIGTCKALYTFEGQNEGTISVVEGETLYVIEEDKGDGWTRIRRNEDEEGYVPTSYVEVCLDKNAKDS
# partner: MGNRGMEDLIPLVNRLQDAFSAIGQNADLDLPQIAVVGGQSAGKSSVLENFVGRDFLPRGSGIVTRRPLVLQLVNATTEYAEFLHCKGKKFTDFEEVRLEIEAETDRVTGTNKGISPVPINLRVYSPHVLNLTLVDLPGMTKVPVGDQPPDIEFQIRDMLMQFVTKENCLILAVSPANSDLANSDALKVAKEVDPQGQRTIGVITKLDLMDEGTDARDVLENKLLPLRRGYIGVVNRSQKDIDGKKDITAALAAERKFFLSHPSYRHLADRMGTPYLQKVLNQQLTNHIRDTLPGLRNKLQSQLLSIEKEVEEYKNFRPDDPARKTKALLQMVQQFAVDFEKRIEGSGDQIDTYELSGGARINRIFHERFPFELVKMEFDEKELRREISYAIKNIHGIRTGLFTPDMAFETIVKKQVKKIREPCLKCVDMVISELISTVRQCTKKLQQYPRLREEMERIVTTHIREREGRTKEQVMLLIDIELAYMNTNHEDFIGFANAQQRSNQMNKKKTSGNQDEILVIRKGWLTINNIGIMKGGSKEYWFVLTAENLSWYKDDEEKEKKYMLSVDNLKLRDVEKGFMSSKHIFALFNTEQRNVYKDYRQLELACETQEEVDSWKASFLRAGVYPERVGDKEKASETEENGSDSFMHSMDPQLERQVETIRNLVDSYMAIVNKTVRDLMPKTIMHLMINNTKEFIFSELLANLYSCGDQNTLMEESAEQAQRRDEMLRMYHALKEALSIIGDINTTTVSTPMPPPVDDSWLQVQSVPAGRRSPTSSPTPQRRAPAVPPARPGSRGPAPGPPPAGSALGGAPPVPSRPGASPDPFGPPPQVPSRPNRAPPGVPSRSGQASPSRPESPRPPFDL
# B2: Formin-binding protein 1 (Homo sapiens), Q96RU3 (parent)
# chain: B1 chain
# partner: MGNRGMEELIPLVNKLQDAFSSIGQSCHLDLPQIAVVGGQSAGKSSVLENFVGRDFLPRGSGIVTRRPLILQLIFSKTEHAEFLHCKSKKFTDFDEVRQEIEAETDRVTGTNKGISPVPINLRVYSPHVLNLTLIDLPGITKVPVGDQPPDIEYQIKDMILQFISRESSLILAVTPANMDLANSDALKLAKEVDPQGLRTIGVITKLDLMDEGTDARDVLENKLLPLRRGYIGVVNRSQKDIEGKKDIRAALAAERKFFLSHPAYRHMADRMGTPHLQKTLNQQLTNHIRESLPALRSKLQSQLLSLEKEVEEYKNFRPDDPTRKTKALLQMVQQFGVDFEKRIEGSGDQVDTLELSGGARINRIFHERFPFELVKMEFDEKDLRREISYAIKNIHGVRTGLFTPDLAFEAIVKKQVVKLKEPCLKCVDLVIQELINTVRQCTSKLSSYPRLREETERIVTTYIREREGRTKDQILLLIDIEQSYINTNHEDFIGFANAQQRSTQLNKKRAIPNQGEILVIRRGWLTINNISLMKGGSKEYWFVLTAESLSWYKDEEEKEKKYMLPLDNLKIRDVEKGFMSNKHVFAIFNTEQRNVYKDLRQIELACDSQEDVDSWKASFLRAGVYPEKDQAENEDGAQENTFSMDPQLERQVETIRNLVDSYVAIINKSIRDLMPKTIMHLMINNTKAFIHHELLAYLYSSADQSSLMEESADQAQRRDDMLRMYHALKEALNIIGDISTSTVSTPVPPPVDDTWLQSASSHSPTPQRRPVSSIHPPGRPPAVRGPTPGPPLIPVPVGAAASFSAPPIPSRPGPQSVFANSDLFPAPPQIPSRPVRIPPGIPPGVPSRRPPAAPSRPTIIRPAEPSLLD
# B3: Formin-binding protein 1 (Homo sapiens), Q96RU3 (parent)
# chain: B1 chain
# partner: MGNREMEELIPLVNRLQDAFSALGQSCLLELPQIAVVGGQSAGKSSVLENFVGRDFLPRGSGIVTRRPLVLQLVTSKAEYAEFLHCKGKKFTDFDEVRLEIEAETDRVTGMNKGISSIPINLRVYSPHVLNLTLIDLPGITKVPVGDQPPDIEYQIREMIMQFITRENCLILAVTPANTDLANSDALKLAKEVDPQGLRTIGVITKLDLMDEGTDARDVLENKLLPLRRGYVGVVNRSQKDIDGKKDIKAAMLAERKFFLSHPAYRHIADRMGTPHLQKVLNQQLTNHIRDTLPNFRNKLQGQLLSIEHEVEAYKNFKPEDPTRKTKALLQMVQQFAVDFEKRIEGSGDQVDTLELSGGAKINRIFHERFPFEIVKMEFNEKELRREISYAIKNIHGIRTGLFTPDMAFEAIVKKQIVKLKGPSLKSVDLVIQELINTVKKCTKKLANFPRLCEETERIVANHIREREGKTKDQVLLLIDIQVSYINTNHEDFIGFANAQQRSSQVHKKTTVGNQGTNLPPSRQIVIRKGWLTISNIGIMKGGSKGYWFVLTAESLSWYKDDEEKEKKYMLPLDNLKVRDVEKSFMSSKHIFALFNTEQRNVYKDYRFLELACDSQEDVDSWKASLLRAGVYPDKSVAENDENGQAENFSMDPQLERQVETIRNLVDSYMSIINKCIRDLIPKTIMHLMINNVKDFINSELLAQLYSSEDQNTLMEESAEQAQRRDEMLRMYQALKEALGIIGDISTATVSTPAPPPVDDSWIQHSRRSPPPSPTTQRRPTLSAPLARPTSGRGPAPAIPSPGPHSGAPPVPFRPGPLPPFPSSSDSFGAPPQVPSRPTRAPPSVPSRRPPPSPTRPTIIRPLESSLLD
# Variants of: B1
# Details: with dyn1_human DNM1, Q05193
row,Variant,effect of a mutation on the interaction
1,P602L,decreasing interaction

# Variants of: B2
# Details: with dyn2_human DNM2, P50570
row,Variant,effect of a mutation on the interaction
1,P602L,decreasing interaction

# Variants of: B3
# Details: with dyn3_human DNM3, Q9UQ16
row,Variant,effect of a mutation on the interaction
1,P602L,decreasing interaction
